The source of these data is article PMC8561633 (The EMBO Journal, 2021).

B2: Asyn Med peptide (GKNEEGAPQEGI) of alpha‐synuclein, carboxyfluorescein-labeled (peptide)
peptide: GKNEEGAPQEGI
modifications: also: 5(6)-carboxyfluorescein label, site not given here
B3: Asyn worst peptide (MDVFMKGLSKAK) of alpha‐synuclein, carboxyfluorescein-labeled (peptide)
peptide: MDVFMKGLSKAK
modifications: also: 5(6)-carboxyfluorescein label, site not given here
B5: Asyn top peptide (YEMPSEEGYQDY) of alpha‐synuclein, carboxyfluorescein-labeled (peptide)
peptide: YEMPSEEGYQDY
modifications: also: 5(6)-carboxyfluorescein label, site not given here

Holding throughout (experiment): MST
Assay [1] deals with amyloid beta peptide (strongest wild‐type SERF2 binding peptide from amyloid beta), carboxyfluorescein-labeled (human).
The target in another assay is T1, wild‐type SERF2 (human, UniProt P84101-1 1-59).
T1 sequence: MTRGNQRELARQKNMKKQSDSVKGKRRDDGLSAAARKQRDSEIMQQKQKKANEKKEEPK

In assay [2] the target is B5.
The target in assay [3] is B2.
In assay [4] the target is B3.

Broadly, the Kd is the equilibrium constant for the complex coming apart. A low value points to a tighter complex.

Ends that are not written are not given here.

B1: wild‐type SERF2 (natural protein)
chain: MTRGNQRELARQKNMKKQSDSVKGKRRDDGLSAAARKQRDSEIMQQKQKKANEKKEEPK
In turn, B1 yielded a Kd in assay [1] of 9.6 µM. For the molecule B2, in the assay with wild‐type SERF2, the binding result is given as “binds”. Still for that read-out and setting: the result for B3 reads “binds”.

B4: SERF2 KR mutant (natural protein)
chain: MTRGNQRELARQKNMRRQSDSVRGKRRDDGLSAAARKQRDSEIMQQKQKKANEKKEEPK
On to B4, for which the dissociation constant Kd was determined as 6.6 µM in assay [1] and 2600 nM in assay [2]. Also, the binding result in assay [3] and in assay [4] was “binds” each time. In the case of B5, in the assay with wild‐type SERF2, the Kd came to 3000 nM. That is a single-digit micromolar value.
